Assay results from a protein production outcome set (Wang et al. 2014).

Assay: label from the status in PepcDB records

Sequence | protein production
NIVEWLGDRSLAVLAAIANKFRGSEQETLEPQLDEFVEDKVSTKHVEDDQQDDETLPHLTAYEVEEPKEKAAVHEYPIYMPQAKSETSAVKPTPEPQPQRVAAVNATPTYVEPEPQLKAVSTDNVDPMVERTKQLNVTIEELEAAAQQADDWASEEQTSQSYADTNAVYQEQVQAKHEEVVEHDTPQLESSYAEYAQFAAQQEQQLHVEPTPHEEPVIDTRALDDITDHAEPSEHIEPTISDFDVVDEEETYVAPQPQSRSPEPQPMVQPQSVSQIQPEQAPEPSVAFEPAPQEVEVEEVQDGDQDVAAFQSMVSSAQAKVAATQNPFLMKQEQNLPVPEEPLPTLELLYHPEKRENFIDREALEQVARLVESKLADYKIKADVVGIYPGPVITRFELDLAPGVKVSRISGLSMDLARALSAMAVRVVEVIPGKPYVGLELPNMSRQTVYLSDVISSPQFEQAKSPTTVVLGQDIAGEAVIADIAKMPHVLVAGTTGSGKSVGVNVMILSMLYKASPEDLRFIMIDPKMLELSIYEGIPHLLAEVVTDMKDASNALRWCVGEMERRYKLMSALGVRNVKGFNEKLKMAAEAGHPIHDPFWQEGDSMDTEPPLLEKLPYIVVVVDEFADLMMVVGKKVEELIARLAQKARAAGIHLILATQRPSVDVITGLIKANIPTRVAFTVSTKTDSRTILDQGGAESLLGMGDMLYLPPGSSHTIRVHGAFASDDDVHAVVNNWKARGKPNYIDEIISGDQGPESLLPGEQMESDEEMDPLFDQVVEHVVQSRRGSVSGVQRRFKIGYNRAARIVEQLEAQGIVSAPGHNGNREVLAPAPPKD | failed
MPVMQSRIIHLSVEKPWAEVYDFAANPGNMPRWAAGLAGGLEADGEDWIAKGGPLGEVRVNFAPHNEFGVIDHVVTLPDGLKVYNALRVTPNGSGTEVSFTLLRLEGMTDEDFEQDASAITADLEMLKSLLEAD | not failed
MSLKIIDFRLRPPAMGFLNARIYTRPDIRNRFTRQLGFEPAPSAEEKSLELMFEEMAAAGIEQGVCVGRNSSVLGSVSNADVAAVAKAYPDKFHPVGSIEAATRKEAMAQMQEILDLGIRIVNLEPGVWATPMHVDDRRLYPLYAFCEDNGIPVIMMTGGNAGPDITYTNPEHIDRVLGDFPDLTVVSSHGNWPWVQEIIHVAFRRPNLYLSPDMYLYNLPGHADFIQAANSFLADRMLFGTAYPMCPLKEYTEWFLTLPIKPDAMEKILHGNAERLLAQAGREGHHHHHH | not failed
MTNERVMQLIREAYEKNLTTLDLSENQLTQLPSEITELKNLTTLNLSGNQLTQLPSEIGELKSLTSFDLSVNQLTQLPPEIGELKNLTILNVYRNQLIQLLPEITELKNLTTLDLSLNKLTQLPPLEHHHHHH | failed
MTQDELLVLIEQAATEGWRELDLSGQELTELPGEIGKLQQLESLILGKQVGGYEKVGYRIFQKALGNNLKTLPIELLSLPNLRKLDISGNPLEGIPDVVMQILHLEELILIRVQLTEIPEALAKLTNLTQLILSDNQITEIPEALAKLTNLTQLNLSYNQITEIPEALAKLTNLTQLNLSYNQITEIPEALAKLTNLTQLNLRGNQRTEIPEALAKLTNLTRLNLSYNQRTEIPEALAKLTNLTQLILSDNQIKEIPETIAKLTNLTHLILSGNQIKEIPETIAKLTNLTQLGLDGNQIKEIPEAIAKLTNLTQLGLDGNQIKEIPEAITKLTNLTHLILSGNQIKEIPETIAKLTNLTQLALSSNQITEIPEVLAQLTNLTQLFLSSNQITQIPEALAPLTNLTTLHLRVNQITQIPEAIESLPKLELLDLRGNPLPISPEILGSVYQVGSVEEIFNYLRLLRSGEVRPLNEAKLLLVGQGSVGKTSLIERLIHNKYDRNQPQTDGLKVETWNVQVNSKDIRLNVWDFGGQEIYHATHQFFLTKRSLYLLVCNCRTSEEENRIEYWLKLIESFGGQSPVIIVGNKKDEQPLDINRKALREKYPNIQAIIETSCQDNIGIDELRTAILQQVGNLKEVYDLLPLSWFEVKQQLESMSQDFITYSSYIGICYENKIPEEHNQEQLIDLLHRLGLVLNFREHPILRDTNVLKPNWVTEGIYALLSDENLKTKSKGIFTPADLTRVLNPERYPTKRHGYLIELMKEFELGFELACYPPQFLIAGLLPKDQPDATELEGETLEFQYHYKVLPESIISRFIVNTHERIHNQIYWRSGVMLQYQQHNEIYNIARIKADPEDKKIFIAISGRKETRRSFLAILRDVFQKIHKSLANLEITEWVPVPGYPNHPPLDYQELLGLETMGILEYPIGKLKININIRQLLDGYESLESRRKLQKGDHDLDDRTAYEDILDIAKLAVSRPIITKAEAKAVSENPQFTNNLQGANIANFANEVKDNASQQASNFNQTSGANIAEIMQLINNLRQTVAQFPPEIRDDIIIDIDDVEVEIQKPEKERNTPKLKKRLAALLTAASVAAAPIASVVDFTNNVMELGSKLGIELIQPSP | failed
